Read-outs that look alike come from different tables or passages of the source.
Columns and labels:
[1] = biological target: T1, human Galectin-9 (Gal9) (human, UniProt O00182-2 1-323, limits assumed); experiment: SPR
T1 construct: also called human Gal9

[2] = biological target: T1, human Galectin-9 (Gal9); experiment: SPR; remark: listed apart in the source
[3] = biological target: T2, Gal9 as added in the T-cell apoptosis and TIM-3 dimerization assays (species not stated); experiment: cell-based or functional assay
[4] = biological target: T1, human Galectin-9 (Gal9); experiment: solution equilibrium assay (SEA), human Gal9
[5] = biological target: T3, mouse Galectin-9 (Gal9) (mouse, UniProt O08573-2 2-322, limits assumed); experiment: solution equilibrium assay (SEA), mouse Gal9
T3 construct: also called mouse Gal9

[6] = biological target: T1, human Galectin-9 (Gal9); experiment: solution equilibrium assay (SEA), human Gal9; remark: listed apart in the source
[7] = biological target: T3, mouse Galectin-9 (Gal9); experiment: solution equilibrium assay (SEA), mouse Gal9; remark: listed apart in the source
[8] = biological target: T2, Gal9 as added in the T-cell apoptosis …; experiment: cell-based or functional assay; remark: listed apart in the source
[9] = biological target: T2, Gal9 as added in the T-cell apoptosis …; experiment: cell-based or functional assay; remark: listed apart in the source
[10] = biological target: T2, Gal9 as added in the T-cell apoptosis …; experiment: cell-based or functional assay; remark: listed apart in the source

T1 sequence (O00182 other isoform, or with tags, fused parts or gaps limits assumed): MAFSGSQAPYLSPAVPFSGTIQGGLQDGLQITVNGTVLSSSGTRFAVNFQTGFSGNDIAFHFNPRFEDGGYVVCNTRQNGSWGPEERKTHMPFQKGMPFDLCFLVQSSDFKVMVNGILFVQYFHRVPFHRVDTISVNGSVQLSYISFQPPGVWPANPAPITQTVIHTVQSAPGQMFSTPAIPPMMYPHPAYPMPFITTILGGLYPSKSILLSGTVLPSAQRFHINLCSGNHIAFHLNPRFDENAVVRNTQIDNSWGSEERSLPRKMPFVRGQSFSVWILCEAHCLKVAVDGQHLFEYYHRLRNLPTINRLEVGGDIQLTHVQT
T2 sequence (O00182 whole entry): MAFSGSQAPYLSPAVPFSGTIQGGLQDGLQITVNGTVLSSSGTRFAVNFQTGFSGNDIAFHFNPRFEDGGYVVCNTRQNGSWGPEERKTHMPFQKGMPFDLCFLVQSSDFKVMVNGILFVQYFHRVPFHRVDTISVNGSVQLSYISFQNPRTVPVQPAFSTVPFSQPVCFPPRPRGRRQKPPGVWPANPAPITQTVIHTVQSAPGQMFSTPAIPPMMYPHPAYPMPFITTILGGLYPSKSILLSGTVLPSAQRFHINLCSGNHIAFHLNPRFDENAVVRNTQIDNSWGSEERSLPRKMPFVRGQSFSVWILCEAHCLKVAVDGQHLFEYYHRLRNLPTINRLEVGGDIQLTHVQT
T3 sequence (O08573 other isoform, or with tags, fused parts or gaps limits assumed): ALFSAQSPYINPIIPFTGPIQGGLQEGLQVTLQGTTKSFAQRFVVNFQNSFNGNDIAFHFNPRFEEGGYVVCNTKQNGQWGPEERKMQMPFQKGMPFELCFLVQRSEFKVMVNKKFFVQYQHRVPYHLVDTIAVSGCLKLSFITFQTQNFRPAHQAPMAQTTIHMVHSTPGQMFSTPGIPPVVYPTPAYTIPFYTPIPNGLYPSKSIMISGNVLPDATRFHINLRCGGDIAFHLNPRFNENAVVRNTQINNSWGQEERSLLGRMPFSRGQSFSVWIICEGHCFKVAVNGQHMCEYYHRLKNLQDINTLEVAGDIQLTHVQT

| Binder | Kd [1] | koff [1] | kon [1] | Kd [2] | koff [2] | kon [2] | IC50 of reducing Gal9-induced CD4+ T cell apoptosis [3] | Kd [4] | Kd [5] | Kd [6] | Kd [7] | IC50 (read off the curve), inhibition of Gal9-induced TIM-3 dimerization [8] | IC50, inhibition of Gal9-induced TIM-3 dimerization (RLU, enzyme fragment complementation) [8] | IC50 (read off the curve), inhibition of Gal9-induced CD4+ T cell apoptosis [9] | IC50, inhibition of Gal9-induced CD4+ T cell apoptosis (% AnnexinV+PI+ cells) [9] | IC50, inhibition of Gal9-induced CD8+ T cell apoptosis (% AnnexinV+PI+ cells) [10] |
| --- | --- | --- | --- | --- | --- | --- | --- | --- | --- | --- | --- | --- | --- | --- | --- | --- |
| antibody A (Ab A), HFB9-2hz11, parental humanized anti-Gal9 antibody (antibody, V domains shown, also called antibody Ab A) VH: QVQLVQSGAEVKKPGASVKVSCKASGYTFTEYTIHWVRQAPGQGLEWMGWFYPGSGSTEYAQKFQGRVTMTADTSISTAYMELSRLRSDDTAVYFCERHGGYDGFDYWGQGTTVTVSS VL: not shown | 7.18 nM | 0.0099 s⁻¹ | 1.4e+06 M⁻¹ s⁻¹ | 4.9 nM | 0.00077 s⁻¹ | 160000 M⁻¹ s⁻¹ | 18.7 nM | 3.1 nM | 49 nM | 3.1 nM | 49 nM |  |  |  |  |  |
| antibody 003 (Ab 003), affinity matured anti-Gal9 antibody (antibody, V domains shown, Full HC/LC entries; they may hold a signal peptide) VH: QVQLVQSGAEVKKPGASVKVSCKASGYPFSSYTIHWVRQAPGQGLEWMGWFYPGSGSTEYAQKFQGRVTMTADTSISTAYMELSRLRSDDTAVYFCEVHGGYDGFDYWGQGTTVTVSS VL: not shown |  |  |  |  |  |  |  |  |  |  |  | ~20 nM |  |  |  |  |
| antibody 001 (Ab 001), affinity matured anti-Gal9 antibody (antibody, V domains shown, Full HC/LC entries; they may hold a signal peptide) VH: QVQLVQSGAEVKKPGASVKVSCKASGYEFTEYTIHWVRQAPGQGLEWMGWFYPGSGSTWYAQKFQGRVTMTADTSISTAYMELSRLRSDDTAVYFCERHGGYDGFDYWGQGTTVTVSS VL: not shown |  |  |  |  |  |  | 1.9 nM |  |  |  |  | ~20 nM | 25 nM | ~6 nM | 6.1 nM | 1.34 nM |

Source: patent US20260028407A1 (FIBROGEN, published 2026)
